This is an account of results in US20210398607A1, “METHODS FOR DESIGNING ANTIBODY SMALL-MOLECULE CONJUGATES” (priority 2020, published 2021).

The target of one assay is mSA. As to conditions: read-out: biotin/mSA affinity, fluorescence polarization spectroscopy, cited from earlier work.
The target of assay [1] is T1, mSA (monomeric streptavidin construct), wild type.
T1 construct: also called mSAWT
T1 chain: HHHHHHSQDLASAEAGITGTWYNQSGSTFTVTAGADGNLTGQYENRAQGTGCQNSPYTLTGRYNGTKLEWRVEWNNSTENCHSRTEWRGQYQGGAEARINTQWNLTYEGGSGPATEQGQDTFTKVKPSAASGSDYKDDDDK
The assay can be described thus: SPR.

Assay [2] has as its target T1, mSA (monomeric streptavidin construct), …. The assay can be described thus: SPR, conjugate injected at 1, 2.5, 5, 10, 20 nM over immobilized mSAWT; fit curve; one of three replicates.
Assay [3] has the same target. The assay can be described thus: SPR, conjugate injected at 1, 2.5, 5, 10, 20 nM; fit curve; replicate 2. The panel title prints 'against immobilized mSAS27A'; target taken as mSAWT after the legend of FIG. 6B and the matching data points of FIG. 6C.
For assay [4] the target is unchanged. The assay can be described thus: SPR, conjugate injected at 1, 2.5, 5, 10, 20 nM; fit curve; replicate 3. The panel title prints 'against immobilized mSAS27A'; target taken as mSAWT after the legend of FIG. 6B and the matching data points of FIG. 6C.
For assay [5] the target is unchanged. The assay can be described thus: SPR, conjugate injected at 1, 2.5, 5, 10, 20 nM; fit curve; replicate 2. The panel title prints 'against immobilized mSAS27A'; target taken as mSAWT after the legend of FIG. 6B (other two replicates against mSAWT are in FIG. 11) and the matching data points of FIG. 6C.
Assay [6] has the same target. The assay can be described thus: SPR, immobilized mSA.
For assay [7], the target named is T2, mSAS27A (mSA with single mutation S27A).
T2 chain: T1 chain with S27A
The assay can be described thus: SPR.

The target in assay [8] is T1, mSA (monomeric streptavidin construct), …. The assay can be described thus: SPR, 25 °C, immobilized mSA.
Assay [9] addresses T2, mSAS27A (mSA with single mutation S27A). The assay can be described thus: SPR; reference mSAS27A/biotin.
Assay [10] concerns the target T1, mSA (monomeric streptavidin construct), …. The assay can be described thus: SPR, 25 °C; reference mSA on immobilized biotin.
The target is the same in assay [11]. The assay can be described thus: SPR, conjugate injected at 1, 2.5, 5, 10, 20 nM over immobilized mSAWT; fit curve; replicate 2.
The target is the same in assay [12]. The assay can be described thus: SPR, conjugate injected at 1, 2.5, 5, 10, 20 nM over immobilized mSAWT; fit curve; replicate 3.
For assay [13] the target is unchanged. The assay can be described thus: SPR, conjugate injected at 1, 2.5, 5, 10, 20 nM over immobilized mSAWT; fit curve; one of three replicates.
For assay [14], the target named is T2, mSAS27A (mSA with single mutation S27A). The assay can be described thus: SPR, conjugate injected at 62.5, 125, 250, 500 nM and 1 µM over immobilized mSAS27A; fit curve; one of three replicates.
For assay [15] the target is unchanged. The assay can be described thus: SPR, conjugate injected at 62.5, 125, 250, 500 nM and 1 uM over immobilized mSAS27A; biological replicate 2; fit curve.
The target is the same in assay [16]. The assay can be described thus: SPR, conjugate injected at 62.5, 125, 250, 500 nM and 1 uM over immobilized mSAS27A; biological replicate 3; fit curve.
For assay [17], the target named is T1, mSA (monomeric streptavidin construct), …. The assay can be described thus: SPR; variant v149.
For assay [18] the target is unchanged. The assay can be described thus: SPR, conjugate injected at 0.5, 1, 2.5, 5, 10 nM over immobilized mSAWT; fit curve; replicate 2.
The target is the same in assay [19]. The assay can be described thus: SPR, conjugate injected at 0.5, 1, 2.5, 5, 10 nM over immobilized mSAWT; fit curve; replicate 3.
The target is the same in assay [20]. The assay can be described thus: SPR, conjugate injected at 0.5, 1, 2.5, 5, 10 nM over immobilized mSAWT; fit curve; one of three replicates.
Assay [21] shares this target. The assay can be described thus: SPR; variant v119.
For assay [22] the target is unchanged. The assay can be described thus: SPR, conjugate injected at 0.5, 1, 2.5, 5, 10 nM over immobilized mSAWT; fit curve; replicate 2.
The target is the same in assay [23]. The assay can be described thus: SPR, conjugate injected at 0.5, 1, 2.5, 5, 10 nM over immobilized mSAWT; fit curve; replicate 3.
Assay [24] has the same target. The assay can be described thus: SPR, conjugate injected at 0.5, 1, 2.5, 5, 10 nM over immobilized mSAWT; fit curve; one of three replicates.
Assay [25] shares this target. The assay can be described thus: SPR, conjugate injected at 0.5, 1, 2.5, 5, 10 nM over immobilized mSAWT; fit curve; replicate 2.
Assay [26] shares this target. The assay can be described thus: SPR, conjugate injected at 0.5, 1, 2.5, 5, 10 nM over immobilized mSAWT; fit curve; replicate 3.
Assay [27] has the same target. The assay can be described thus: SPR, conjugate injected at 0.5, 1, 2.5, 5, 10 nM over immobilized mSAWT; fit curve; one of three replicates.
Assay [28] addresses T2, mSAS27A (mSA with single mutation S27A). The assay can be described thus: SPR, conjugate injected at 12.5, 25, 50, 100, 200 nM over immobilized mSAS27A; fit curve; one of three replicates.
Assay [29] shares this target. The assay can be described thus: SPR, conjugate injected at 12.5, 25, 50, 100 and 200 nM over immobilized mSAS27A; biological replicate 2; fit curve.
Assay [30] shares this target. The assay can be described thus: SPR, conjugate injected at 12.5, 25, 50, 100 and 200 nM over immobilized mSAS27A; biological replicate 3; fit curve.
Assay [31] addresses T1, mSA (monomeric streptavidin construct), …. The assay can be described thus: SPR, single-cycle injections of 2.5, 5, 10, 20 and 50 nM conjugate; target mSAWT by the text, not printed on the sheet; fit curve.

Where a chain is given by its changes, count along the chain named. Read-outs that look alike come from different tables or passages of the source.

On to `O=C(O)CCCC[C@@H]1SC[C@@H]2NC(=O)N[C@@H]21` [biotin], for which the Kd is 2.8 ± 0.5 nM on mSA (4° C.) and 5.5 ± 0.2 nM at mSA (37° C.).

B1: 2X89.A-CCAA-biotin57 (VHH)
VHH: QVQLQESGGGSVQAGGSLRLSCAASGYTDSRYAMAWFRQAPGKEREWVARINSGRDCTYYADSVKGRFTFSQDNAKNTVYLQMDSLEPEDTATYYCATDIPLRARDIVAKGGDGFRYWGQGTQVTVSS
notes: also called parent conjugate
For the molecule B1, the Kd in assay [1] is 0.8 nM; in assay [2], 0.82 nM; in assay [3], 1.01 nM; in assay [4], 0.54 nM. The figures for the koff in [2], in assay [3] and in assay [4] were 0.000771 s⁻¹, 0.000718 s⁻¹ and 0.000555 s⁻¹, respectively. Moreover, the kon turned out to be 940000 M⁻¹ s⁻¹ in [2], 1.03e+06 M⁻¹ s⁻¹ in assay [4] and 710000 M⁻¹ s⁻¹ in [5].

B2: 4NBX.B nanobody, wild type (unconjugated) (VHH)
VHH: QVQLQESGGGLAQAGGSLRLSCAASGRTFSMDPMAWFRQPPGKEREFVAAGSSTGRTTYYADSVKGRFTISRDNAKNTVYLQMNSLKPEDTAVYYCAAAPYGANWYRDEYAYWGQGTQVTVSS
notes: also called Wildtype 4NBX.B; 4NBX.B WT
In the case of B2, in [6], the binding result is reported as “no binding (tested: 100 nM)”.

B3: 4NBX.B-biotin103 (VHH)
VHH: B2 VHH with A103C
notes: also called 4NBX.B-biotin103 WT
For the molecule B3, the Kd came to 245 nM in assay [7]; 1.8 nM in assay [8]; 1.59 nM in assay [11]; 1.92 nM in assay [12]; 1.86 nM in assay [13]; 279 nM in assay [14]. Also, the values for the Kd in assay [15] and in assay [16] were 269 nM and 188 nM, respectively. In assay [9], the “fold affinity improvement over biotin/mSAS27A” value was 5 fold. Moreover, the “fold affinity improvement over biotin/mSA” value in [10] worked out at 4 fold. The koff in [11] worked out at 0.00197 s⁻¹; in assay [12] it was 0.00225 s⁻¹; in assay [13] it was 0.00221 s⁻¹; in assay [14], 0.12 s⁻¹; in [15], 0.296 s⁻¹; in assay [16], 0.149 s⁻¹. Besides, the kon in [11] was 1.24e+06 M⁻¹ s⁻¹; in assay [12], 1.17e+06 M⁻¹ s⁻¹; in [13], 1.19e+06 M⁻¹ s⁻¹; in assay [14], 430000 M⁻¹ s⁻¹; in assay [15] it was 1.1e+06 M⁻¹ s⁻¹; in assay [16] it was 790000 M⁻¹ s⁻¹.

B4: 4NBX.B-biotin103 v149 (VHH)
VHH: B2 VHH with M31R, D32S, A103C, N104A, W105R
Regarding B4, in assay [1], the “fold KD improvement over biotin/mSAWT” value was over 20 fold, the “fold faster kon compared to v119” value was about 4 fold and the “koff ratio relative to v119” value is about 0.2 fold. In assay [17], this molecule displayed a Kd of 0.12 nM. For the same molecule, in assay [18], the Kd came out at 0.11 nM, the koff stood at 0.00106 s⁻¹ and the kon was found to be 9.78e+06 M⁻¹ s⁻¹. In [19], this molecule yielded a Kd of 0.14 nM, a koff of 0.00081 s⁻¹ and a kon of 5.84e+06 M⁻¹ s⁻¹. In assay [20], this molecule had a Kd of 0.11 nM, a koff of 0.000923 s⁻¹ and a kon of 8.7e+06 M⁻¹ s⁻¹.

B5: 4NBX.B-biotin103 v119 (VHH)
VHH: B2 VHH with M31H, D32A, A103C, N104S, W105H
As for B5, the “fold KD improvement over 4NBX.B-biotin103 WT” value in assay [1] was about 2 fold. Also, the Kd in [21] worked out at 0.9 nM; in assay [22], 0.76 nM; in [23] it was 1.11 nM; in assay [24], 0.78 nM. Moreover, the values for the koff in assay [22], in [23] and in assay [24] were 0.00186 s⁻¹, 0.00213 s⁻¹ and 0.00177 s⁻¹, respectively. Also, the kon in assay [22] came out at 2.45e+06 M⁻¹ s⁻¹; in assay [23] it was 1.93e+06 M⁻¹ s⁻¹; in assay [24], 2.3e+06 M⁻¹ s⁻¹.

B6: 4NBX.B-biotin103 v186_Fr (VHH)
VHH: QVQLQESGGGLVQAGGSLRLSCAASGRTFSRSPMAWYRQPPGKEREFVAAGSSTGTTTYYADSVKGRFTISRDNAKNTVYLQMNSLKPEDTAVYYCAAAPLGCARKFAESAYWGQGTQVTVSS
notes: also called wildtype v186_Fr
On to B6, for which the Kd in assay [1] was 0.2 nM; in assay [7], 54 nM; in assay [25] it was 0.16 nM; in assay [26], 0.21 nM; in assay [27], 0.23 nM; in assay [28] it was 49.6 nM. In addition, the Kd in assay [29] stood at 56.3 nM; in assay [30], 55.5 nM. Further, the “fold KD improvement over biotin/mSAWT” value in [1] is over 20 fold. Besides, the “fold KD improvement (over biotin/mSAS27A)” value in assay [7] was about 20 fold. In addition, the koff in assay [25] was 0.00079 s⁻¹; in assay [26] it was 0.00089 s⁻¹; in assay [27] it was 0.0011 s⁻¹; in assay [28] it was 0.0912 s⁻¹; in assay [29], 0.0879 s⁻¹; in assay [30] it was 0.0872 s⁻¹. Also, the kon was 5.04e+06 M⁻¹ s⁻¹ in assay [25]; 4.26e+06 M⁻¹ s⁻¹ in assay [26]; 4.79e+06 M⁻¹ s⁻¹ in [27]; 1.84e+06 M⁻¹ s⁻¹ in [28]; 1.56e+06 M⁻¹ s⁻¹ in assay [29]; 1.57e+06 M⁻¹ s⁻¹ in assay [30].

B7: 2X89.A-CCAA-biotin57 v5 (VHH)
VHH: QVQLQESGGGLVQAGGSLRLSCAASGYTSSQYAMGWYRQAPGKEREWVATISAGADCTYYADSVKGRFTFSQDNAKNTVYLQMDSLKPEDTAVYYCATDSPLQATLITAKGGKGFQYWGQGTQVTVSS
notes: also called variant v5; final variant v5
In [31], B7 displayed a Kd of 2.78 nM, a koff of 0.00122 s⁻¹ and a kon of 440000 M⁻¹ s⁻¹.
